B1: CPEB3 Ribozyme (parent)
chain: UAACAGGGGGCCACAGCAGAAGCGUUCACGUCGCAGCCCCUGUCAGAUUCUGGUGAAUCUGCGAAUUCUGCUGUAUAUCUC

Variants of: B1
Test: self-cleavage, relative activity (ratio to wild type); higher = more cleavage; in vitro, sequencing
Outline: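 Relative activity compares each variant's cleaved/total read fraction with that of the unmutated ribozyme. To get these fractions, barcoded CPEB3 ribozyme libraries from rounds of error-prone PCR were transcribed with T7 RNA polymerase for 5 hours at 37°C and then given 15 min of DNase I treatment before EDTA was added. The RNAs were reverse transcribed with template switching and sequenced on Illumina, and DNA sequencing linked barcodes to variants. A minimum of 5 reads applied, and three batches were averaged.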

Variant | self-cleavage
C40G | 0.29
C40A | 0.28
C40A U41C | 0.36
C40A U41A | 0.1
C39G C50G | 0.1
C39A U41A | 0.27
C39A U41C | 0.35
C39A U60G | 0.09
C39A U60A | 0.18
C39A U60C | 0.13
C40A U76C | 0.38
C40A U76A | 0.28
C39U U49C | 0.31
C39A U80C | 0.26
C39A U80A | 0.3
C40A A64G | 0.12
C40A G63A | 0.12
C39A C40U | 0.38
C40A G42U | 0.31
C40A U66C | 0.18
C39G C62U | 0.08
C39A A65G | 0.11
C40A U78C | 0.18
C40A U78A | 0.22

Variant | self-cleavage
C39A C71U | 0.11
C40G A77G | 0.08
C39U U43A | 1.12
C39U U43C | 0.35
C39U C62A | 0.35
C40A C81G | 0.07
C39G G70A | 0.15
C39G U48A | 0.15
C39A U49A | 0.23
C39A U58C | 0.19
C39U A64U | 0.36
C39U U74C | 1.1
C39U U74A | 1.08
C39U A45U | 0.26
C39U A45G | 0.69
C40A U54C | 0.28
C40A U54A | 0.29
C39U U66C | 0.37
C39A A45G | 0.33
C39U A57G | 0.27
C40A A56U | 0.2
C40A A56G | 0.23
C39A U66C | 0.39
C39U U58C | 0.3

Variant | self-cleavage
C39A U51C | 0.34
C39G A57G | 0.19
C40A U80A | 0.26
C40A U80C | 0.24
C39U U51A | 1.06
C39U U51G | 0.89
C40G A65G | 0.35
C39A U74C | 0.49
C39A U74A | 0.53
C40A U60G | 0.2
C40A U60C | 0.2
C40G A56U | 0.42
C39A U48A | 0.21
C39A U48C | 0.12
C40A U58C | 0.1
C39A G73C | 0.76
C39G U80A | 0.09
C40A A45C | 0.23
C40A A45G | 0.26
C40A A45U | 0.31
C39A U69C | 0.16
C39A U69G | 0.14
C39A U69A | 0.22
C39U A65G | 0.32

Variant | self-cleavage
C40G U43C | 0.16
C39U U72A | 0.98
C39U U72G | 1.06
C39U U72C | 0.71
C40A U69C | 0.25
C40A U69G | 0.11
C39A C68G | 0.17
C39A U72C | 0.32
C39A U72A | 0.35
C39U U80C | 0.8
C39U U69C | 0.32
C39U U69A | 0.44
C40A A77G | 0.28
C40A A75U | 0.43
C40A A75G | 0.47
C39A A77U | 0.32
C39A A77G | 0.22
C39U | 0.91
C39G | 0.3
C39A | 0.31
C40A U48A | 0.15
C40A U48C | 0.18
C39U A75G | 0.97
C40A U74A | 0.3

Variant | self-cleavage
C39A A57C | 0.14
C39A A57G | 0.3
C39U U76C | 1.08
C39G A65G | 0.17
C40G U48A | 0.67
C40G U48C | 0.13
C40A A57G | 0.22
C39A A64U | 0.22
C39A A64G | 0.05
C39G A64C | 0.17
C39G A64U | 0.35
C39G A64G | 0.38
C39U C79U | 1.02
C40A U67C | 0.28
C40A U43A | 0.45
C40A U43C | 0.14
C39G U49C | 0.12
C40A C50U | 0.22
C40A C50A | 0.27
C40G U54C | 0.2
C39A U67C | 0.16
C39A U67A | 0.34
C39A U54A | 0.16
C39A U54C | 0.25

Variant | self-cleavage
C39G U41A | 0.21
C39G U41G | 0.13
C39U U54A | 0.95
C39U U60C | 0.39
C39U U60A | 0.43
C39U U48C | 0.42
C39U A47G | 0.48
C39U A47U | 0.42
C40A U72C | 0.37
C40A U72G | 0.41
C39U A56U | 0.32
C39U A56G | 0.48
C40A U51A | 0.33
C40A U51G | 0.25
C39U U78A | 0.89
C39U U67C | 0.21
C40G U41G | 0.6
C40G U41C | 0.32
C40G U41A | 0.26
C40A U49A | 0.18
C39G U60A | 0.25
C39A C81G | 0.16
C39U A77G | 0.83
C39U A77U | 0.81

Variant | self-cleavage
C39G U72C | 0.3
C39A G70A | 0.11
C39U C71U | 0.57
C39A U43A | 0.38
C39A U43C | 0.4
C40A A65G | 0.31
C40A A47C | 0.17
C40A A47G | 0.21
C39U G46U | 0.11
C38U U78A | 1.17
C38U U78C | 0.67
C39G A47G | 0.13
C39A A47C | 0.2
C39A A47G | 0.35
C39A A56U | 0.09
C39A A56G | 0.26
C38U U80A | 0.96
C38U U80C | 1.01
C38U U80G | 1.03
C39A U78C | 0.26
C39A U78A | 0.43
C39U U41A | 0.25
C39G A45G | 0.29

— the RNAGym collection of RNA variant scans (doi:10.1093/nar/gkz1192)
